This note sets out measurements from patent US20230181756A1 (Novartis, published 2023).

Test [1] concerns the target T1, cynomolgus monkey CCR7 (cynomolgus monkey, UniProt P32248 25-378 (human entry)).
T1 construct: also called Cyno CCR7; NIH3T3.cyno CCR7
T1 sequence: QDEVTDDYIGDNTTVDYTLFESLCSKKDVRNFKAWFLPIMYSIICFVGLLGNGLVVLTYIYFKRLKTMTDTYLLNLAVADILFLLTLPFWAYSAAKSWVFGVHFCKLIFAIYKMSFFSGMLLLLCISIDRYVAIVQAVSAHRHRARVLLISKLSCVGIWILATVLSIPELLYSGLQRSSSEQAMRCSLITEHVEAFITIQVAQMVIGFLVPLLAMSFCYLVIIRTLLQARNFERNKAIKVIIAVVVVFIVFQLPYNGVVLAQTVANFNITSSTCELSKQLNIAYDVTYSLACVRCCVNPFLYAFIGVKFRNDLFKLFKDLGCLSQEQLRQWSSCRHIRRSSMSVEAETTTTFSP
The test can be described thus: FACS titration, NIH3T3 cells expressing cyno CCR7.

The target in test [2] is T1, cynomolgus monkey CCR7. Description: FACS titration, cynomolgus CD4+ T cells.
Test [3] has as its target T2, human CCR7 (human, UniProt P32248 25-378).
T2 construct: The assay field tells which; also called hCCR7; NIH3T3.hCCR7
T2 sequence: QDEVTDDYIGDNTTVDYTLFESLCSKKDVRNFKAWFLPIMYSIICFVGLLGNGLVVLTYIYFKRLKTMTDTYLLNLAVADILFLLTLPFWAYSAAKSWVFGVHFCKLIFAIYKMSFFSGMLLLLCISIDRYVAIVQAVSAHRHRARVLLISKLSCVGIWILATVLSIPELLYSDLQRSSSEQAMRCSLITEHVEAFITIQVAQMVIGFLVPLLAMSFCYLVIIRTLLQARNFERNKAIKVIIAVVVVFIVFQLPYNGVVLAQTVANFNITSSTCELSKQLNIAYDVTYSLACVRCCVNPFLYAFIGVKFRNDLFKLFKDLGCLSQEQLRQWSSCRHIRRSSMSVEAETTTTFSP
The test can be described thus: FACS titration, DEL cells (CCR7 receptor levels >=100,000).

Test [4] concerns the target T2, human CCR7. The test can be described thus: ELISA on CCR7-expressing VLPs, pH 5.8 buffer. In general terms: In an ELISA, binding on a coated surface is turned into a signal by an enzyme label.
The next test has as its target T3, CXCR4 (UniProt P61073 1-352, limits assumed).
T3 construct: whole, on cells; also called HEK293-CXCR4
Description: FACS on HEK293-CXCR4 cells.

Test [5] concerns the target T2, human CCR7. The test can be described thus: FACS titration, NIH3T3 cells expressing human CCR7.
In test [6] the target is T2, human CCR7. The test can be described thus: ELISA on CCR7-expressing VLPs, pH 7.4 buffer.
For another test, the target named is T4, CCR6 (UniProt P51684 1-374, limits assumed).
T4 construct: whole, on cells; also called PF382 cells (CCR7-/CCR9+/CCR6+)
T4 sequence (looked up): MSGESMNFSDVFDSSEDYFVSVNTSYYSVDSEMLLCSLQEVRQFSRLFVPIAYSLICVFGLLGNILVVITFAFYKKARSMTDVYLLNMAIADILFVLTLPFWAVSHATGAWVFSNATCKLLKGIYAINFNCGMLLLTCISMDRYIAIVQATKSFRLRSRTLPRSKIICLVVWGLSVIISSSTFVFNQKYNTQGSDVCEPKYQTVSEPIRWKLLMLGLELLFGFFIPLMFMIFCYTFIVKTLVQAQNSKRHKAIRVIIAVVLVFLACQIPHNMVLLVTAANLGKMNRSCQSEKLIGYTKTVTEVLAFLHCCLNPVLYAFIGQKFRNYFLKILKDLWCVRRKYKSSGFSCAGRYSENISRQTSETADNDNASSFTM
Description: FACS on PF382 cells (CCR7-/CCR9+/CCR6+).

The target in the next test is T5, CCR9 (UniProt P51686 1-369, limits assumed).
T5 construct: whole, on cells; also called PF382 cells (CCR7-/CCR9+/CCR6+)
T5 sequence (looked up): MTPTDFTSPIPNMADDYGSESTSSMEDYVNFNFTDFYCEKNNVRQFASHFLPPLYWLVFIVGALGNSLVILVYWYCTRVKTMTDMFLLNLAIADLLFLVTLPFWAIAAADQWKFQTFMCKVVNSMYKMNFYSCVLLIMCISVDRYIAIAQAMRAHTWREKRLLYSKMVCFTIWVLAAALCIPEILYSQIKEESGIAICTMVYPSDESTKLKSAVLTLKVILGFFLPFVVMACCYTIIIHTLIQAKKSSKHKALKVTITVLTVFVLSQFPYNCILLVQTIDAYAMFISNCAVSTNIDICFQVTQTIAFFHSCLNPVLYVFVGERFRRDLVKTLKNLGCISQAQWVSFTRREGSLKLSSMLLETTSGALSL
The test can be described thus: FACS on PF382 cells (CCR7-/CCR9+/CCR6+).

The target in test [7] is T2, human CCR7. The test can be described thus: FACS titration, human CD4+ T cells from PBMC.
The target in another test is T6, CCR8 (UniProt P51685 1-355, limits assumed).
T6 construct: whole, on cells; also called CHO-CCR8
T6 sequence (P51685 whole entry): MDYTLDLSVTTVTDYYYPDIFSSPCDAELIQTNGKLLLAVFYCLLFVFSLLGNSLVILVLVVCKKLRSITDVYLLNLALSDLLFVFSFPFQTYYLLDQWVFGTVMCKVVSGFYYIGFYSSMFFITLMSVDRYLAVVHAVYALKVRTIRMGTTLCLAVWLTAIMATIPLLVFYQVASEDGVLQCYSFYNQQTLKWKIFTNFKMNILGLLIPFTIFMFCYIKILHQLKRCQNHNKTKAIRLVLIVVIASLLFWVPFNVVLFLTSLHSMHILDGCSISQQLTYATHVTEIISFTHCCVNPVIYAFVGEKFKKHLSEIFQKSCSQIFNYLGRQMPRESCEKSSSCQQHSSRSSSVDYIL
The test can be described thus: FACS on CHO-CCR8 cells.

Test [8] concerns the target T7, mouse CCR7 (mouse, UniProt P47774 25-378).
T7 construct: also called NIH3T3.mouse CCR7
T7 sequence: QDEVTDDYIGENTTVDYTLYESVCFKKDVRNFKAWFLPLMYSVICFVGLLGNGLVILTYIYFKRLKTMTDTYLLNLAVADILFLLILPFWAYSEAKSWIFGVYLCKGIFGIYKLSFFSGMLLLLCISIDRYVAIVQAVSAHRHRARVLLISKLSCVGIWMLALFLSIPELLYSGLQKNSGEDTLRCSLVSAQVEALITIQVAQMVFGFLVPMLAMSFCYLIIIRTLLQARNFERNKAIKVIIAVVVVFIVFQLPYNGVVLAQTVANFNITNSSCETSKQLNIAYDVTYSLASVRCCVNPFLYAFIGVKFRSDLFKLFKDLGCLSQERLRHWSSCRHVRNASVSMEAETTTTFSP
Description: FACS titration, CD-1 mouse CD4+ T cells.

In test [9] the target is T7, mouse CCR7. Description: FACS titration, NIH3T3 cells expressing mouse CCR7.
Test [10] addresses T2, human CCR7. The test can be described thus: FACS titration, Jeko-1 cancer cells (CCR7+).
For test [11], the target named is T8, rat CCR7 (rat, UniProt P47774 25-378 (mouse entry)).
T8 construct: also called NIH3T3.rat CCR7
T8 chain: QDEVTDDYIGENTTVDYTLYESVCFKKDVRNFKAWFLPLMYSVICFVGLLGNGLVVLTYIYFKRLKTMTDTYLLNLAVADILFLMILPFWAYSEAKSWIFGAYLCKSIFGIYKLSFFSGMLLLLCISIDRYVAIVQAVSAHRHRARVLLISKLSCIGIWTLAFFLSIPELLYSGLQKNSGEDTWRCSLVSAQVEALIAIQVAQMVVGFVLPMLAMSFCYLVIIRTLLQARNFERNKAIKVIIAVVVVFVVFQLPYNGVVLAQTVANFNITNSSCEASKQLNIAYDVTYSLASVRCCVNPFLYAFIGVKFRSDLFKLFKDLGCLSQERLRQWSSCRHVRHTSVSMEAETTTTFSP
Description: FACS titration, NIH3T3 cells expressing rat CCR7.

Test [12] has as its target T1, cynomolgus monkey CCR7. Description: FACS titration, NIH3T3 cells expressing cyno CCR7. The source holds these as a separate data set.
In test [13] the target is T8, rat CCR7. Description: FACS titration, Wistar rat CD4+ T cells.
The target in test [14] is T2, human CCR7. The test can be described thus: cell-based or functional assay.
For test [15], the target named is T2, human CCR7. Description: FACS titration, NIH3T3 cells expressing human CCR7. The source holds these as a separate data set.
Test [16] deals with T1, cynomolgus monkey CCR7. The test can be described thus: FACS titration, cynomolgus CD4+ T cells. The source holds these as a separate data set.
Test [17] concerns the target T2, human CCR7. The test can be described thus: FACS titration, human CD4+ T cells from PBMC. This is another data set of the same source.

T3 sequence (P61073 whole entry): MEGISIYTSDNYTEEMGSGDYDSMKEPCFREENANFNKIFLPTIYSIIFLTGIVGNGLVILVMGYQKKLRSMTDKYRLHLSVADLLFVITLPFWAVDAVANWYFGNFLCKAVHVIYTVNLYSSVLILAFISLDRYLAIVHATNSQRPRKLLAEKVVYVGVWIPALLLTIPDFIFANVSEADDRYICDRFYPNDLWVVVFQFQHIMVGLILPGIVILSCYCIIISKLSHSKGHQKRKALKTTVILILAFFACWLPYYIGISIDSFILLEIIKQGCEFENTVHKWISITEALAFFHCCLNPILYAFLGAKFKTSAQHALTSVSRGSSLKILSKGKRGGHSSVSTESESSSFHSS

B1: 121G12 humanized CysMab (Fc Wild Type) (antibody, V domains shown)
VH: EVQLVESGGGLVKPGGSLRLSCAASGFTFSTYAMSWVRQAPGKGLEWVATISDAGSYSYYPDNVKGRFTISRDNAKNSLYLQMNSLRAEDTAVYYCARRGSRYEEYYVMDYWGQGTTVTVSS
VL: EIVLTQSPATLSVSPGERVTLSCRASQSISNNLHWYQQKPGQAPRLLIKYASQSISGIPARFSGSGSGTDFTLTISSVEPEDFGVYFCQQSSSWLTFGQGTKLEIK
notes: Human IgG1 kappa with CysMab cysteines (E152C, S375C); also called Humanized CysMab antibody 121G12; 121G12.CysMab.DAR4 unconjugated (assigned)
Usually EC50 stands for the concentration giving half of the maximal effect. As usually defined, the Kd is a measure of binding affinity in units of concentration. For B1, the EC50 is 0.9 nM in the test with cynomolgus monkey CCR7 [1]; 12 nM with cynomolgus monkey CCR7 [2]; 5.24 nM with human CCR7 [3]; 1 nM with human CCR7 [5]; 30 to 34 nM with human CCR7 [7]. The results for the Kd with human CCR7 [4] and with human CCR7 [6] were 0.521 nM and 0.141 nM, respectively. For the same molecule, the binding result in the test with CXCR4, with CCR6, with CCR9 and with CCR8 was “no binding (tested: 5 ug/ml)” each time.

B2: 121G12 non-humanized CysMab (antibody, human IgG1, kappa, V domains shown)
VH: EVQLVESGGGLVKPGGSLKLSCAASGFTFSTYAMSWVRQTPEKRLEWVATISDGGSYSYYPDNVKGRFTISRDNAKNNLYLQMSHLKSEDTAMYYCARRGSRYEEYYVMDYWGQGTSVTVSS
VL: DIVLTQSPATLSVTPGDSVSLSCRASQSISNNLHWYQQKSHESPKLLIKYASQSISGIPSRFSGSGSGTDFTLSINSVETEDFGMYFCQQSNSWLTFGAGTKLGLKR
notes: Chimeric: murine variable regions on human IgG1 kappa with CysMab cysteines (E152C, S375C) and wild type Fc; also called Parental 121G12 hIgG1 CysMab; Non-humanized CysMab antibody 121G12
As for B2, the EC50 was 48 to 51 nM with mouse CCR7 [8]; 2.5 nM with mouse CCR7 [9]; 1.5 nM in the test with human CCR7 [10]; 2.4 nM with rat CCR7 [11]; 1.3 nM with cynomolgus monkey CCR7 [12]; 18 to 31 nM in the test with rat CCR7 [13]. Also, the EC50 is 1.3 nM with human CCR7 [15], 5.8 to 12 nM in the test with cynomolgus monkey CCR7 [16] and 22 to 30 nM with human CCR7 [17]. In addition, the “ADCC activity; IC50 (nM); reporter assay, JVM2 targets and Jurkat-V158 effectors” value with human CCR7 [14] turned out to be 0.077 nM.
